Legend:
[1] = test system: NC(=O)C1=CN([C@@H]2O[C@H](COP(=O)(O)OP(=O)(O)OC[C@H]3O[C@@H](n4cnc5c(N)ncnc54)[C@H](O)[C@@H]3O)[C@@H](O)[C@H]2O)C=CC1; test: purified protein; assay type: biochemical, Sus scrofa; settings: free NADH, 630 μM pyruvate, 50 mM Tris/HCl pH 7.4, 25 °C
[2] = test system: NC(=O)C1=CN([C@@H]2O[C@H](COP(=O)(O)OP(=O)(O)OC[C@H]3O[C@@H](n4cnc5c(N)ncnc54)[C@H](O)[C@@H]3O)[C@@H](O)[C@H]2O)C=CC1; test: purified protein; settings: free NADH, 630 μM pyruvate, 50 mM Tris/HCl pH 7.4, 25 °C

Chain of phLDH (porcine heart LDH) (Sus scrofa) (chain, as listed by the source): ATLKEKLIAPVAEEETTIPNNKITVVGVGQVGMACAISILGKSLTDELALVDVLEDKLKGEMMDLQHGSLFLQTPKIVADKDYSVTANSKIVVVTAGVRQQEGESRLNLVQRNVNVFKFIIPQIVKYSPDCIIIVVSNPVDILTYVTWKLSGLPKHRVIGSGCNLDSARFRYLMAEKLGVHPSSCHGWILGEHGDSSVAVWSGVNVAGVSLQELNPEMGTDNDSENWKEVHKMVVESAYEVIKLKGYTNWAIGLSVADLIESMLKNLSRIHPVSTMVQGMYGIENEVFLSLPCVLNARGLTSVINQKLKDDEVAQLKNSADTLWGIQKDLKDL

| Substance | Km [1] | Km [2] |
| --- | --- | --- |
| phLDH (porcine heart LDH) (Sus scrofa) | 7.8 ± 0.9 µM |  |
| rmLDH (rabbit muscle LDH) (Oryctolagus cuniculus) |  | 4.4 ± 0.4 µM |
